Results taken from patent publication US20040208867A1, “Protein having active sulfate transporter activity and method for detecting canceration of tissue” (NATIONAL INSTITUTE OF ADVANCED INDUSTRIAL SCIENCE AND …, priority 2002, published 2004).

Tests used:
[1] = transport activity of the P100 fraction for labeled nucleotide sugars instead of PAPS; type: biochemical, yeast strain W303a; conditions: labeled nucleotide sugars instead of 35S-labeled PAPS (FIG. 2)
Experimental: Five minutes thereafter, 10 volumes of an ice-cooled reaction terminating solution (20 mM Tris-HCl buffer (pH 7.5) containing 0.25 M sucrose, 5 mM MgCl2 and 150 mM KCl) was added thereto, and the mixture was filtered through a nitrocellulose filter of 0.45 μm in pore size. This filter was washed with 10 ml of the iced-cooled reaction terminating solution, and the radioactivity of this filter was measured using a liquid scintillation counter (FIG. 1). Respective fractions prepared using a transformant of a yeast strain W303a transformed with YER352 GAPII alone were used as negative controls.

[2] = substrate: Nc1ncnc2c1ncn2[C@@H]1O[C@H](COP(=O)(O)OS(=O)(=O)O)[C@@H](OP(=O)(O)O)[C@H]1O; test: cells, lysate or membranes; conditions: other: transport of PAPS (35S-labeled), P100 fraction, pH 7.5, PAPS concentration varied, FIG. 3, FIG. 4, 37.0 °C

B1: human STP3 (GenBank accession No. XM_059770), protein having active sulfate (PAPS) transport activity, SEQ ID NO:2 (Homo sapiens) (protein)
chain: MDARWWAVVVLAAFPSLGAGGETPEAPPESWTQLWFFRFVVNAAGYASFMVPGYLLVQYFRRKNYLETGRGLCFPLVKACVFGNEPKASDEVPLAPRTEAAETTPMWQALKLLFCATGLQVSYLTWGVLQERVMTRSYGATATSPGERFTDSQFLVLMNRVLALIVAGLSCVLCKQPRHGAPMYRYSFASLSNVLSSWCQYEALKFVSFPTQVLAKASKVIPVMLMGKLVSRRSYEHWEYLTATLISIGVSMFLLSSGPEPRSSPATTLSGLILLAGYIAFDSFTSNWQDALFAYKMSSVQMMFGVNFFSCLFTVGSLLEQGALLEGTRFMGRHSEFAAHALLLSICSACGQLFIFYTIGQFGAAVFTIIMTLRQAFAILLSCLLYGHTVTVVGGLGVAVVFAALLLRVYARGRLKQRGKKAVPVESPVQKV
activity to specifically transport substances other than PAPS [1]: substantially has no activity | Km [2]: 0.7 µM
